Measurements taken from patent US20210163946A1.

Target: human C5a receptor (human) (UniProt P21730)
Assay: cell-based or functional assay

Chain of human C5a receptor (human) (P21730 whole entry): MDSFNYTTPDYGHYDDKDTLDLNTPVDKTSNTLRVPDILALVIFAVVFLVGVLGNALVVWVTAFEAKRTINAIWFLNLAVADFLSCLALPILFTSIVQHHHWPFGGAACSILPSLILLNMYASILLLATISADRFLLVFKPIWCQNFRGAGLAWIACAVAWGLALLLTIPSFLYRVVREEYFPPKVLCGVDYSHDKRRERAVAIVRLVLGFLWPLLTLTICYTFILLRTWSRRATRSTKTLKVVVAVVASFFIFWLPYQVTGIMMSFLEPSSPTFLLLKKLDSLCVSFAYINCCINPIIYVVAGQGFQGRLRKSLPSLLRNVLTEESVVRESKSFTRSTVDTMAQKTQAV

| half-maximal effective concentration (EC50) of chemotaxis of BA/F3/huC5aR cells | Substance |
| --- | --- |
| 0.3 nM | mouse C5a (from UniProt P06684 679-755) (ligand) |
| 0.1 nM | recombinant human C5a (from UniProt P01031 678-751) (ligand) |
